Source: patent publication US5922563

Molecular target: receptors on glutaraldehyde-fixed HeLa cells
Test: competition ligand assay on fixed HeLa cells; 100 µg E. coli lysate (F11.2 cDNA); competitor: ^35 S-labeled trichomonad AP65; densitometry of fluorograms

Work on “recombinant AP65-1 adhesin expressed in E. coli from cDNA clone F11.2 (ligand)” yielded a percent decrease of parasite AP65 binding of 55%.
